Test results taken from publication PMC6053440, “Cellular stress induces erythrocyte assembly on intravascular von Willebrand factor strings and promotes microangiopathy” (Scientific Reports, 2018).

Biological target: T1, von Willebrand factor, human plasmatic (human, UniProt P04275 764-2813)
T1 construct: von Willebrand factor, human, from plasma; multimeric glycoprotein; Multimer of disulfide-linked subunits; The results call the VWF of the ELISA recombinant, but the methods name plasmatic VWF; also called VWF; plasmatic VWF; source: bought: Calbiochem (human plasmatic VWF)
T1 sequence (P04275 764-2813): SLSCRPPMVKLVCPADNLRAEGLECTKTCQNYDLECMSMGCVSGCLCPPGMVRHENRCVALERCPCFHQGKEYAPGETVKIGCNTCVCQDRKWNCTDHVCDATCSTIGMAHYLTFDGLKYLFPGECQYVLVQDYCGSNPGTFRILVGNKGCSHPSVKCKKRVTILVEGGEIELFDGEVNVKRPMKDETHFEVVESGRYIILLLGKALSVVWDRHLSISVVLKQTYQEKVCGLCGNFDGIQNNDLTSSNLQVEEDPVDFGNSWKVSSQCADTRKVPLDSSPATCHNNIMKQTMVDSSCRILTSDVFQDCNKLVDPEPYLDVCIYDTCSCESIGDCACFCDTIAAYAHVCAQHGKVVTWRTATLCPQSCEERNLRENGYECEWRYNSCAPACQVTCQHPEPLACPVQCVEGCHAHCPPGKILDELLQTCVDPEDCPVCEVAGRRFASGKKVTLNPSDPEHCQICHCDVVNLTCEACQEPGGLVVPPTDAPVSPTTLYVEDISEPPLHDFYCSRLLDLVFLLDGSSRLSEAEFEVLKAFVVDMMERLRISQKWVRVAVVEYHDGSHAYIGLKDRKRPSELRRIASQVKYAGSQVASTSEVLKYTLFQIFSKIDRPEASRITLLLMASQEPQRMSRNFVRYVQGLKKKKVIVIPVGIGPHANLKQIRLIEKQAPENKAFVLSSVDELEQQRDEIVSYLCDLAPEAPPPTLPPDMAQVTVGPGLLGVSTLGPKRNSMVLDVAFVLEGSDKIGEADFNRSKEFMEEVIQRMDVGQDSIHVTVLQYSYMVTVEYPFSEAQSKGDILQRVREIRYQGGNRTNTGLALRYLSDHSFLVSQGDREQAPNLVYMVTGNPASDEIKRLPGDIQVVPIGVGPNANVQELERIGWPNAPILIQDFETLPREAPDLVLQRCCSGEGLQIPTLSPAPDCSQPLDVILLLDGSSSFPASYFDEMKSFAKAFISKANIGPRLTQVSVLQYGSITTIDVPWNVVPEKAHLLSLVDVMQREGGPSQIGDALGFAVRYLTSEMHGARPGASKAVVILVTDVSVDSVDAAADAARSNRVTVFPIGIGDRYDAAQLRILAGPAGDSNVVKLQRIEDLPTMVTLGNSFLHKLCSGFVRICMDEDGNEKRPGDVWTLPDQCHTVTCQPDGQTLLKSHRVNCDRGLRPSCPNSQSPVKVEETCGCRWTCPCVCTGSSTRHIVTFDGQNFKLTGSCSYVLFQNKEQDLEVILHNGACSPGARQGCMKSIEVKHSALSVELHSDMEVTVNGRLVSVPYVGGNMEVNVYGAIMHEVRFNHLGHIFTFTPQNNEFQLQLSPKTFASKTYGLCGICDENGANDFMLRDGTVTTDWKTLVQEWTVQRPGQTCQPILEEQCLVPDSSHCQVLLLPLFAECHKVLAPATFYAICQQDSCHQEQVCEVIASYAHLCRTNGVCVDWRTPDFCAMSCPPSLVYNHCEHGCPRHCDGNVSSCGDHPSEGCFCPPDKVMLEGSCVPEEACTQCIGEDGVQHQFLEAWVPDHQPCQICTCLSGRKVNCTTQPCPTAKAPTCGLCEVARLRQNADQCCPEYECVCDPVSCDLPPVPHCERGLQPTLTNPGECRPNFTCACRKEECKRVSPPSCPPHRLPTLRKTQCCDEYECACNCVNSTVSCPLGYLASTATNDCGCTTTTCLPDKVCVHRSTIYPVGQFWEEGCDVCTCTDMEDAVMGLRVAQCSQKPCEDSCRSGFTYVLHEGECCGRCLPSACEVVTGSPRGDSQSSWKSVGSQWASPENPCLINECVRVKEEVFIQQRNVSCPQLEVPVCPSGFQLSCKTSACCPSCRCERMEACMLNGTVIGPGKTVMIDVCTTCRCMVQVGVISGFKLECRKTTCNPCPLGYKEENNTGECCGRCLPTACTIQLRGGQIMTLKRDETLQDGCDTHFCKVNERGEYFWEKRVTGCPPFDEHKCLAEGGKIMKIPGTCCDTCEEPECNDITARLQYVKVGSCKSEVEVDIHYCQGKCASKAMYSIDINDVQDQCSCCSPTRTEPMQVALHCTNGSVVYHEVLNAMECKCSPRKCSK
Assay: ELISA; 96-well plates coated with 20 µg/ml AV; human plasmatic VWF added at 0.15, 0.5, 1.0 and 1.5 µg/ml; bound VWF detected colorimetrically with peroxidase-labelled anti-human VWF antibody; washing with calcium-free buffer
Details: both partners purified

B1: Annexin V (natural protein, human, UniProt P08758 1-320, looked up)
chain: MAQVLRGTVTDFPGFDERADAETLRKAMKGLGTDEESILTLLTSRSNAQRQEISAAFKTLFGRDLLDDLKSELTGKFEKLIVALMKPSRLYDAYELKHALKGAGTNEKVLTEIIASRTPEELRAIKQVYEEEYGSSLEDDVVGDTSGYYQRMLVVLLQANRDPDAGIDEAQVEQDAQALFQAGELKWGTDEEKFITIFGTRSVSHLRKVFDKYMTISGFQIEETIDRETSGNLEQLLLAVVKSIRSIPAYLAETLYYAMKGAGTDDHTLIRVMVSRSEIDLFNIRKEFRKNFATSLYSMIKGDTSGDYKKALLLLCGEDD
notes: Annexin V (annexin A5), human, purified from placenta; The methods of the ELISA name AV purified from human placenta (Sigma-Aldrich), but the results call it recombinant AV; In the flow adhesion experiments purified recombinant AV (BD Biosciences, 10 µg/ml) was added, and the erythrocytes' own AV was also present; also called AV; source: bought: Sigma-Aldrich, purified AV from human placenta
binding result: binds
